Results: US20230372448A1, “THERAPEUTIC USE OF LONG-ACTING CONJUGATE OF TRIPLE AGONIST ACTING ON ALL OF GLUCAGON, GLP-1 AND GIP RECEPTORS AGAINST MULTIPLE SCLEROSIS” (HANMI PHARM. CO. ,LTD., priority 2020, published 2023)
Positions of bridges follow the written chain, without caps; N, C: chain ends. Non-standard residues stand in square brackets, D forms with d. No end group written: not given here. *: point of attachment. Acetyl(2-(4-imidazolyl)) = O=C(Cc1c[nH]cn1)*; Aib = CC(C)(N)C(=O)O

What was measured:
Test in all cases: cell-based or functional assay
human GLP-1 receptor = human GLP-1 receptor (human, UniProt P43220 24-463)
human GIP receptor = biological target: T1, human GIP receptor (human, UniProt P48546 22-466)
T1 sequence (looked up): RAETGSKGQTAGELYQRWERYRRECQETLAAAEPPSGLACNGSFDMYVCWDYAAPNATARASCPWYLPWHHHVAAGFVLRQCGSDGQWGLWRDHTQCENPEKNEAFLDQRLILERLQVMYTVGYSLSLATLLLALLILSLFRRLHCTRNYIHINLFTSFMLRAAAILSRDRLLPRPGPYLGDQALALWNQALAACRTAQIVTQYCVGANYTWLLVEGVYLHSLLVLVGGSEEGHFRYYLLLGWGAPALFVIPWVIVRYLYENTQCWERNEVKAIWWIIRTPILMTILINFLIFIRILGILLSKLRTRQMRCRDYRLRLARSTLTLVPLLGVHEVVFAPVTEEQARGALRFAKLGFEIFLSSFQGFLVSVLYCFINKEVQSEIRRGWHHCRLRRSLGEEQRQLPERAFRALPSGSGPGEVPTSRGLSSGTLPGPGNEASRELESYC

human GCG receptor = human GCG receptor (human, UniProt P47871 26-477)
Sequence of human GCG receptor (P47871 26-477): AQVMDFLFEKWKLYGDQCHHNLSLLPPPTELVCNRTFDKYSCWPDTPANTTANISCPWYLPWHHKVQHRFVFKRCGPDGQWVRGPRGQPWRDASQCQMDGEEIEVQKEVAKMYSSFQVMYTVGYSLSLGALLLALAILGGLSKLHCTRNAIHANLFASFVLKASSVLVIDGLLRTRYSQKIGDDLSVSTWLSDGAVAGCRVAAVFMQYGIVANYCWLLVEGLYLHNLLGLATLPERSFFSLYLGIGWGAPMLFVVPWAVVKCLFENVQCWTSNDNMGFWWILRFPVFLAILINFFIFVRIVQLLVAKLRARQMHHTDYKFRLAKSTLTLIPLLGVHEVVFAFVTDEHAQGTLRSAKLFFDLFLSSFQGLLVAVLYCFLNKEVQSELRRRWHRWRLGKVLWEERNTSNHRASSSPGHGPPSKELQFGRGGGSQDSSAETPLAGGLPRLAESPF

Binder: H[Aib]QGTFTSDYSKYLDEKRQKEFVNWLLAQC (bridge 16-20) [triple agonist of SEQ ID NO: 56]
- In vitro activity (%) compared with native peptide: vs GLP-1 (human GLP-1 receptor): 57.9%
- In vitro activity (%) compared with native peptide: vs GIP (human GIP receptor): 0.8%
- In vitro activity (%) compared with native peptide: vs Glucagon (human GCG receptor): 4.9%

Binder: Y[Aib]QGTFTSDYSKYLDECAAKDFVQWLLDHHPSSGQPPPS (bridge 16-20) [triple agonist of SEQ ID NO: 67]
- In vitro activity (%) compared with native peptide: vs GLP-1 (human GLP-1 receptor): 28.5%
- In vitro activity (%) compared with native peptide: vs GIP (human GIP receptor): 39.8%
- In vitro activity (%) compared with native peptide: vs Glucagon (human GCG receptor): 46.2%

Binder: Y[Aib]QGTFTSDYSKCLDEKAAKEFVQWLLDHHPSSGQPPPS (bridge 16-20; not fully specified) [triple agonist of SEQ ID NO: 68]
- In vitro activity (%) compared with native peptide: vs GLP-1 (human GLP-1 receptor): 27.9%
- In vitro activity (%) compared with native peptide: vs GIP (human GIP receptor): 107%
- In vitro activity (%) compared with native peptide: vs Glucagon (human GCG receptor): 8.8%

Binder: H[Aib]QGTFTSDVSSYLDGQAAKEFVAWLLKGC (not fully specified) [triple agonist of SEQ ID NO: 6]
- In vitro activity (%) compared with native peptide: vs GLP-1 (human GLP-1 receptor): 17%
- In vitro activity (%) compared with native peptide: vs GIP (human GIP receptor): < 0.1%
- In vitro activity (%) compared with native peptide: vs Glucagon (human GCG receptor): < 0.1%

Binder: Y[Aib]QGTFTSDYSKCLDEKRAKDFVQWLLDHHPSSGQPPPS (bridge 16-20; not fully specified) [triple agonist of SEQ ID NO: 70]
- In vitro activity (%) compared with native peptide: vs GLP-1 (human GLP-1 receptor): 15.1%
- In vitro activity (%) compared with native peptide: vs GIP (human GIP receptor): 64.4%
- In vitro activity (%) compared with native peptide: vs Glucagon (human GCG receptor): 71.3%

Binder: Y[Aib]QGTFTSDYSKYLDEKRAKDFVQWLLDHHPSSGQPPPSC (bridge 16-20; not fully specified) [triple agonist of SEQ ID NO: 76]
- In vitro activity (%) compared with native peptide: vs GLP-1 (human GLP-1 receptor): 10.3%
- In vitro activity (%) compared with native peptide: vs GIP (human GIP receptor): 11.7%
- In vitro activity (%) compared with native peptide: vs Glucagon (human GCG receptor): 47.6%

Binder: Y[Aib]QGTFTSDCSKYLDERAAKDFVQWLLDHHPSSGQPPPS (bridge 16-20; not fully specified) [triple agonist of SEQ ID NO: 72]
- In vitro activity (%) compared with native peptide: vs GLP-1 (human GLP-1 receptor): 11.5%
- In vitro activity (%) compared with native peptide: vs GIP (human GIP receptor): 1.6%
- In vitro activity (%) compared with native peptide: vs Glucagon (human GCG receptor): 1%

Binder: Y[Aib]QGTFTSDYSKYLDECRAKDFVQWLLDHHPSSGQPPPS (bridge 16-20; not fully specified) [triple agonist of SEQ ID NO: 66]
- In vitro activity (%) compared with native peptide: vs GLP-1 (human GLP-1 receptor): 15.8%
- In vitro activity (%) compared with native peptide: vs GIP (human GIP receptor): 17.2%
- In vitro activity (%) compared with native peptide: vs Glucagon (human GCG receptor): 172%

Binder: Y[Aib]QGTFTSDYSKYLDERACKDFVQWLLDHHPSSGQPPPS (bridge 16-20; not fully specified) [triple agonist of SEQ ID NO: 71]
- In vitro activity (%) compared with native peptide: vs GLP-1 (human GLP-1 receptor): 90.1%
- In vitro activity (%) compared with native peptide: vs GIP (human GIP receptor): 94.7%
- In vitro activity (%) compared with native peptide: vs Glucagon (human GCG receptor): 12.7%

Binder: {Acetyl(2-(4-imidazolyl))}-[Aib]QGTFTSDYSIAMDEIACKDFVNWLLNTK (bridge 15-19; not fully specified) [triple agonist of SEQ ID NO: 61]
- In vitro activity (%) compared with native peptide: vs GLP-1 (human GLP-1 receptor): 59.8%
- In vitro activity (%) compared with native peptide: vs GIP (human GIP receptor): 2.8%
- In vitro activity (%) compared with native peptide: vs Glucagon (human GCG receptor): < 0.1%

Binder: H[Aib]QGTFTSDYSKYLDEKRQKEFVQWLLNTKC (bridge 16-20; not fully specified) [triple agonist of SEQ ID NO: 58]
- In vitro activity (%) compared with native peptide: vs GLP-1 (human GLP-1 receptor): 39.1%
- In vitro activity (%) compared with native peptide: vs GIP (human GIP receptor): 0.2%
- In vitro activity (%) compared with native peptide: vs Glucagon (human GCG receptor): 2.6%

Binder: H[Aib]QGTFTSDYSKCLDEKRAKEFVQWLLDHHPSSGQPPPS (bridge 16-20; not fully specified) [triple agonist of SEQ ID NO: 65]
- In vitro activity (%) compared with native peptide: vs GLP-1 (human GLP-1 receptor): 95.4%
- In vitro activity (%) compared with native peptide: vs GIP (human GIP receptor): 11.6%
- In vitro activity (%) compared with native peptide: vs Glucagon (human GCG receptor): 25.2%

Binder: Y[Aib]QGTFTSDYSKYLDEKAAKDFVQWLLDHHPSSGQPPPSC (bridge 16-20; not fully specified) [triple agonist of SEQ ID NO: 77]
- In vitro activity (%) compared with native peptide: vs GLP-1 (human GLP-1 receptor): 38.7%
- In vitro activity (%) compared with native peptide: vs GIP (human GIP receptor): 35.5%
- In vitro activity (%) compared with native peptide: vs Glucagon (human GCG receptor): 12.2%

Binder: {Acetyl(2-(4-imidazolyl))}-[Aib]QGTFTSDYSIAMDEKHCKDFVNWLLNTK (bridge 15-19; not fully specified) [triple agonist of SEQ ID NO: 60]
- In vitro activity (%) compared with native peptide: vs GLP-1 (human GLP-1 receptor): 106%
- In vitro activity (%) compared with native peptide: vs GIP (human GIP receptor): 8.2%
- In vitro activity (%) compared with native peptide: vs Glucagon (human GCG receptor): < 0.1%

Binder: H[Aib]EGTFTSDYSIAMDEIHQKDFVDWLLAEC (bridge 16-20; not fully specified) [triple agonist of SEQ ID NO: 54]
- In vitro activity (%) compared with native peptide: vs GLP-1 (human GLP-1 receptor): 30.6%
- In vitro activity (%) compared with native peptide: vs GIP (human GIP receptor): 0.1%
- In vitro activity (%) compared with native peptide: vs Glucagon (human GCG receptor): 1.4%

Binder: Y[Aib]QGTFTSDYSKCLDERAAKEFVQWLLDHHPSSGQPPPS (bridge 16-20; not fully specified) [triple agonist of SEQ ID NO: 69]
- In vitro activity (%) compared with native peptide: vs GLP-1 (human GLP-1 receptor): 24.3%
- In vitro activity (%) compared with native peptide: vs GIP (human GIP receptor): 62.8%
- In vitro activity (%) compared with native peptide: vs Glucagon (human GCG receptor): 9.6%

Binder: H[Aib]QGTFTSDVSKYLDGQAAKEFVAWLLKGC (not fully specified) [triple agonist of SEQ ID NO: 7]
- In vitro activity (%) compared with native peptide: vs GLP-1 (human GLP-1 receptor): 13.7%
- In vitro activity (%) compared with native peptide: vs GIP (human GIP receptor): < 0.1%
- In vitro activity (%) compared with native peptide: vs Glucagon (human GCG receptor): < 0.1%

Binder: Y[Aib]QGTFTSDYSKYLDEKAAKEFVQWLLDHHPSSGQPPPSC (bridge 16-20; not fully specified) [triple agonist of SEQ ID NO: 75]
- In vitro activity (%) compared with native peptide: vs GLP-1 (human GLP-1 receptor): 35.1%
- In vitro activity (%) compared with native peptide: vs GIP (human GIP receptor): 18%
- In vitro activity (%) compared with native peptide: vs Glucagon (human GCG receptor): 8.5%

Binder: {Acetyl(2-(4-imidazolyl))}-[Aib]QGTFTSDYSKCLDEKRAKEFVQWLLDHHPSSGQPPPS (bridge 15-19; not fully specified) [triple agonist of SEQ ID NO: 74]
- In vitro activity (%) compared with native peptide: vs GLP-1 (human GLP-1 receptor): 12.9%
- In vitro activity (%) compared with native peptide: vs GIP (human GIP receptor): 1%
- In vitro activity (%) compared with native peptide: vs Glucagon (human GCG receptor): 0.9%

Binder: {Acetyl(2-(4-imidazolyl))}-[Aib]QGTFTSDYSKYLDECRAKEFVQWLLDHHPSSGQPPPS (bridge 15-19; not fully specified) [triple agonist of SEQ ID NO: 73]
- In vitro activity (%) compared with native peptide: vs GLP-1 (human GLP-1 receptor): 22.6%
- In vitro activity (%) compared with native peptide: vs GIP (human GIP receptor): 3%
- In vitro activity (%) compared with native peptide: vs Glucagon (human GCG receptor): 5.4%

Binder: H[Aib]QGTFTSDVSKYLDGQAAQEFVAWLLKGC (not fully specified) [triple agonist of SEQ ID NO: 8]
- In vitro activity (%) compared with native peptide: vs GLP-1 (human GLP-1 receptor): 14.2%
- In vitro activity (%) compared with native peptide: vs GIP (human GIP receptor): < 0.1%
- In vitro activity (%) compared with native peptide: vs Glucagon (human GCG receptor): 0.1%

Binder: {Acetyl(2-(4-imidazolyl))}-[Aib]QGTFTSDYSICMDEKHQKDFVNWLLNTK (bridge 15-19; not fully specified) [triple agonist of SEQ ID NO: 59]
- In vitro activity (%) compared with native peptide: vs GLP-1 (human GLP-1 receptor): 40.3%
- In vitro activity (%) compared with native peptide: vs GIP (human GIP receptor): 4%
- In vitro activity (%) compared with native peptide: vs Glucagon (human GCG receptor): < 0.1%

Binder: {Acetyl(2-(4-imidazolyl))}-[Aib]QGTFTSDCSKYLDERAAQDFVQWLLDGGPSSGAPPPS (not fully specified) [triple agonist of SEQ ID NO: 63]
- In vitro activity (%) compared with native peptide: vs GLP-1 (human GLP-1 receptor): 15.3%
- In vitro activity (%) compared with native peptide: vs GIP (human GIP receptor): < 0.1%
- In vitro activity (%) compared with native peptide: vs Glucagon (human GCG receptor): < 0.1%

Binder: Y[Aib]QGTFTSDYSKYLDECAAKEFVQWLLDHHPSSGQPPPS (bridge 16-20; not fully specified) [triple agonist of SEQ ID NO: 64]
- In vitro activity (%) compared with native peptide: vs GLP-1 (human GLP-1 receptor): 64.6%
- In vitro activity (%) compared with native peptide: vs GIP (human GIP receptor): 92.9%
- In vitro activity (%) compared with native peptide: vs Glucagon (human GCG receptor): 60.1%

Binder: H[Aib]QGTFTSDYSKYLDEKRQKEFVQWLLDTKC (bridge 16-20; not fully specified) [triple agonist of SEQ ID NO: 78]
- In vitro activity (%) compared with native peptide: vs GLP-1 (human GLP-1 receptor): 51%
- In vitro activity (%) compared with native peptide: vs GIP (human GIP receptor): 0.12%
- In vitro activity (%) compared with native peptide: vs Glucagon (human GCG receptor): 14%

Binder: {Acetyl(2-(4-imidazolyl))}-[Aib]QGTFTSDKSKYLDERAAQDFVQWLLDGGPSSGAPPPS (not fully specified) [triple agonist of SEQ ID NO: 62]
- In vitro activity (%) compared with native peptide: vs GLP-1 (human GLP-1 receptor): 5.2%
- In vitro activity (%) compared with native peptide: vs GIP (human GIP receptor): < 0.1%
- In vitro activity (%) compared with native peptide: vs Glucagon (human GCG receptor): < 0.1%

Binder: H[Aib]EGTFTSDYSIAMDEIHQKDFVNWLLAQKC (bridge 16-20; not fully specified) [triple agonist of SEQ ID NO: 79]
- In vitro activity (%) compared with native peptide: vs GLP-1 (human GLP-1 receptor): 41.5%
- In vitro activity (%) compared with native peptide: vs GIP (human GIP receptor): 1.4%
- In vitro activity (%) compared with native peptide: vs Glucagon (human GCG receptor): 4.9%
